{
  "source": "paper PMC12612594",
  "about": "“Nuclear Magnetic Resonance‐based fragment screen of the E3 ligase Fem‐1 homolog B” (Protein Science : A Publication of the Protein Society, 2025)",
  "molecules": {"B1": {"name": "FEM1B‐11: FEM1B construct, mutations L4E, L18E, A21E, L25S, Y84A, I270N, L281E, R321D (protein, UniProt Q9UK73 1-627, looked up, variant L4E L18E A21E L25S Y84A I270N L281E R321D)", "Protein fem-1 homolog B": "MEGEAGYVYKAASEGKVETLEALLSNRSESDIRYLLGYVSQQGGQRSTPLIIAARNGHAKVVRLLLEHYRVQTQQTGTVRFDGAVIDGATALWCAAGAGHFEVVKLLVSHGANVNHTTVTNSTPLRAACFDGRLDIVKYLVENNANISIANKYDNTCLMIAAYKGHTDVVRYLLEQRADPNAKAHCGATALHFAAEAGHIDIVKELIKWRAAIVVNGHGMTPLKVAAESCKADVVELLLSHADCDRRSRIEALELLGASFANDRENYDINKTYHYLYLAMEERFQDGDNILEKEVLPPIHAYGNRTECRNPQELESIRQDDDALHMEGLIVRERILGADNIDVSHPIIYRGAVYADNMEFEQCIKLWLHALHLRQKGNRNTHKDLLRFAQVFSQMIHLNETVKAPDIECVLRCSVLEIEQSMNRVKNISDADVHNAMDNYECNLYTFLYLVCISTKTQCSEEDQCKINKQIYNLIHLDPRTREGFTLLHLAVNSNTPVDDFHTNDVCSFPNALVTKLLLDCGAEVNAVDNEGNSALHIIVQYNRPISDFLTLHSIIISLVEAGAHTDMTNKQNKTPLDKSTTGVSEILLKTQMKMSLKCLAARAVRANDINYQDQIPRTLEEFVGFH"}, "B2": {"name": "FEM1B‐5: FEM1B construct, mutations L4E, A21E, L18E, L25S (protein, UniProt Q9UK73 1-627, looked up, variant L4E A21E L18E L25S)", "Protein fem-1 homolog B": "B1 Protein fem-1 homolog B with A84Y, N270I, E281L, D321R"}, "B3": {"name": "FEM1B‐7: FEM1B construct, mutations L4E, L18E, L25S, L281E, R321D (protein, UniProt Q9UK73 1-627, looked up, variant L4E L18E L25S L281E R321D)", "Protein fem-1 homolog B": "B1 Protein fem-1 homolog B with E21A, A84Y, N270I"}, "B4": {"name": "FEM1B‐10: FEM1B construct, mutations L4E, L18E, L24S, I270N, L281E (protein, UniProt Q9UK73 1-627, looked up, variant L4E L18E L24S I270N L281E)", "Protein fem-1 homolog B": "B1 Protein fem-1 homolog B with E21A, L24S, S25L, A84Y, D321R"}, "B5": {"name": "FEM1B‐4: FEM1B construct, mutations L4E, L18E, L281E, R321D (protein, UniProt Q9UK73 1-627, looked up, variant L4E L18E L281E R321D)", "Protein fem-1 homolog B": "B1 Protein fem-1 homolog B with E21A, S25L, A84Y, N270I"}, "B6": {"name": "FEM1B‐9: FEM1B construct, mutations L4E, A21E, L25S, L281E, R321D (protein, UniProt Q9UK73 1-627, looked up, variant L4E A21E L25S L281E R321D)", "Protein fem-1 homolog B": "B1 Protein fem-1 homolog B with E18L, A84Y, N270I"}, "B7": {"name": "FEM1B‐6: FEM1B construct, mutations Y84A, I270N, L281E, R321D (protein, UniProt Q9UK73 1-627, looked up, variant Y84A I270N L281E R321D)", "Protein fem-1 homolog B": "B1 Protein fem-1 homolog B with E4L, E18L, E21A, S25L"}, "B8": {"name": "FEM1B‐3: FEM1B construct, mutations L4E, L18E, L281E (protein, UniProt Q9UK73 1-627, looked up, variant L4E L18E L281E)", "Protein fem-1 homolog B": "B1 Protein fem-1 homolog B with E21A, S25L, A84Y, N270I, D321R"}, "B9": {"name": "FEM1B‐8: FEM1B construct, mutations L4E, A21E, L25S, I270N, L281E (protein, UniProt Q9UK73 1-627, looked up, variant L4E A21E L25S I270N L281E)", "Protein fem-1 homolog B": "B1 Protein fem-1 homolog B with E18L, A84Y, D321R"}, "B10": {"name": "FEM1B WT: substrate binding domain of FEM1B (residues 1–356), wild type (protein, UniProt Q9UK73 1-356, looked up, fragment)", "chain": "MEGLAGYVYKAASEGKVLTLAALLLNRSESDIRYLLGYVSQQGGQRSTPLIIAARNGHAKVVRLLLEHYRVQTQQTGTVRFDGYVIDGATALWCAAGAGHFEVVKLLVSHGANVNHTTVTNSTPLRAACFDGRLDIVKYLVENNANISIANKYDNTCLMIAAYKGHTDVVRYLLEQRADPNAKAHCGATALHFAAEAGHIDIVKELIKWRAAIVVNGHGMTPLKVAAESCKADVVELLLSHADCDRRSRIEALELLGASFANDRENYDIIKTYHYLYLAMLERFQDGDNILEKEVLPPIHAYGNRTECRNPQELESIRQDRDALHMEGLIVRERILGADNIDVSHPIIYRGAVYAD", "modifications": "substrate binding domain"}},
  "note": "Where a chain is given by its changes, count along the chain named. Names and notes keep the numbering of the source. Values joined by “and” are separate entries in the source; they are usually repeats but may differ in a detail not shown here. Identical values can stand only once.",
  "data": [
    {"experiment": "stability of construct at room temperature", "format": "physicochemical", "conditions": "not given", "excerpt": "Two FEM1B constructs (FEM1B‐1 and FEM1B‐2) were designed to remove free cysteines on the exterior of the protein to prevent disulfide bond formation and prevent aggregation. FEM1B‐3 to FEM1B‐11 were designed to modify hydrophobic residues on the protein surface and reduce the predicted pI away from the pH needed for the experiment. To accomplish this, residues such as Leu, Ile, Val, or Arg were mutated to negatively charged residues (Asp or Glu) to shift the pI to be more acidic. Hydrophobic residues on the surface of the protein were chosen for mutation to also reduce solvent‐exposed hydrophobic patches that may be contributing to the aggregation (Figure S1, Supporting Information).", "values": [
      {"molecule": "B1", "stable at room temperature": "over 24 h"}
    ]},
    {"experiment": "thermal shift assay of FEM1B constructs", "format": "physicochemical", "conditions": "average of three replicates", "description": "The substrate binding domain of FEM1B (residues 1–356, ~42 kDa molecular weight) was prepared for NMR‐based screening. However, this construct (FEM1B WT) was prone to aggregation and was not suitable for the NMR experiments. […] To reduce the potential for aggregation, we prepared several mutants of FEM1B constructs and evaluated their stability using a thermal shift assay (Table 1).", "values": [
      {"molecule": "B1", "Tm ± SD": "48.6 ± 1.7 °C"},
      {"molecule": "B2", "Tm ± SD": "38.8 ± 0.3 °C"},
      {"molecule": "B3", "Tm ± SD": "28.7 ± 1.4 °C"},
      {"molecule": "B4", "Tm ± SD": "36.3 ± 0.1 °C"},
      {"molecule": "B5", "Tm ± SD": "35.0 ± 0.5 °C"},
      {"molecule": "B6", "Tm ± SD": "28.5 ± 1.3 °C"},
      {"molecule": "B7", "Tm ± SD": "37.3 ± 0.04 °C"},
      {"molecule": "B8", "Tm ± SD": "35.0 ± 0.5 °C"},
      {"molecule": "B9", "Tm ± SD": "34.5 ± 0.2 °C"},
      {"molecule": "B10", "Tm ± SD": "35.6 °C and 35.6 ± 0.5 °C"}
    ]}
  ]
}
